Experimental findings from patent US20220267458A1 (Innovent, published 2022) are described below.

Residue numbers refer to the chain shown, from its start.

To fix the notation:
T1: human GITR-His (human, UniProt Q9Y5U5 26-161)
T1 construct: Bought from Acro biosystems; also called GITR-His (Acro biosystems); antigen GITR-His
T1 sequence: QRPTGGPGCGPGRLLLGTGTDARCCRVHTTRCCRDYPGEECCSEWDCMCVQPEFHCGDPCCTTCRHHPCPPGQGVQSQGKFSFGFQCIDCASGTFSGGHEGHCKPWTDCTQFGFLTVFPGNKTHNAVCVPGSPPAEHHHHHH

B1: Nb-15 (VHH)
VHH: QVQLQESGGGSVQAGGSLRLSCVVFGNIFRNYCMAWFRQAPGKEREGVVVIYTGGGSTYYADSVKGRFTISQDNAKNTVYLQMNSLKHEDTAMYYCAADQTTRYSSDYVNVGPCDMDSWGKGTQVTVSS
notes: Tested as crude extract from E. coli (osmotic shock)
B2: Nb-17 (VHH)
VHH: QVQLQESGGGSAQAGGSLRLSCAASRYTSSSNAMGWFRQAPGKQREWVAGSDTGAGITCNAASVKGRFTISQDVAKNTVYLQMNSLKPEDTAVYYCAADWFRGAFCSGDADFRYWGQGTQVTVSS
notes: as for B1
B3: Nb-18 (VHH)
VHH: QVQLQESGGGSVQTGGSLRLSCAASGLTSTTKYMGWFRQAPGKEREGVAGIYISSGATYYDDSVKGRFTISQDNAKNTVYLHINSLEPDDTAMYYCAASVLSVFRPLSSNQYHYWGQGTQVTVSS
notes: as for B1
B4: Nb-21 (VHH)
VHH: QVQLQESGGGSVQAGGSLRLSCRTSGYTNNLKSMAWFRQAPGKEREAVASIHNNGGPTYDYYAESVKGRFAISQDNAKNTLYLQMSSAKPEDTAVYYCAADNRFLGSGSWRLPSLYNYWGQGTQVTVSS
notes: as for B1
B5: Nb-07 (VHH)
VHH: QVQLQESGGGLVQAGGSLKLSCTVSGFAFGSSHMSWVRRAPGKGLEWVSTIHSGGGFGDYANSVQGRFTISRDVAKNTLYLQMNSLKPEDTAIYYCALATDWRKPPGQGTQVTVSS
notes: as for B1
B6: Nb-10 (VHH)
VHH: B5 VHH with A14P, K19R, T23A, V24A
notes: as for B1
B7: Nb-05 (VHH)
VHH: QVQLQESGGGLVQPGGSLRLSCAASGFTFSNKVMSWVRQAPGKGFEWVSSIARGGDWTTYADSVEGRFTISRDNAKNTLYLQLNSLKTEDTAMYYCAQAENWKTPPGQGTQVTVSS
notes: as for B1
B8: Nb-20 (VHH)
VHH: QVQLQESGGGSVQAGGSLRLSCASSGYSRTSRWMAWFRQAPGKEREGVAAIYTGGSSTLYANSMADRVTISQDNAKNTVYLRMNNLKPEDTAMYYCAADKLAGDFWLVDRWRAWGQGTQVTVSS
notes: as for B1
B9: Nb-09 (VHH)
VHH: QVQLQESGGGLVQPGGSLRLSCGASGFTFSSTAMWWFRQAPGKGLEWVSSITSDVSGTYYADSVQGRFTISRDNGKNTVYLQMNSLRSEDTALYYCATSCGFSGGTWSCKYRGQGTQVTVSS
notes: as for B1
B10: Nb-16 (VHH)
VHH: QVQLQESGGGSVQAGGSLRLSCAASGYTYNKYSWGWFRQAPGKEREGVAGIDSDGSTSYADSVKGRFTISKDNTKNTLYLQMNSLKPEDTAMYYCAASDWVSAIQALGVLAVRPYEYWGQGTQVTVSS
notes: as for B1
B11: Nb-14 (VHH)
VHH: QVQLQEFGGGSVQAGGSLRLSCVASGFTFSNYCMGWFRQDPGKEREAVARIFVDGSTRYADAVKGRFTISKDNAKNTLYVQINSLKPEDTAMYYCTTPFPWTLCVDGPGAYKYWGQGTQVTVSS
notes: as for B1
B12: Nb-06 (VHH)
VHH: QVQLQESGGGSVQAGGSLRLSCAASGYAYTRNCMGWFRQAPGKEREEVATINLGGGSTYYADSVKGRFAISQDNAKNTVYLQMNNLKPEDTAMYYCAAIAQYGGSLCSNFGWYNLWGQGTQVTVSS
notes: as for B1
B13: Nb-04 (VHH)
VHH: QVQLQESGGGSVQAGGSLRLSCTASGFTVDDSGMGWYRQAPGNECELVSTISSDGSTYYADSVKGRFTISQDNAKNTVYLQMNSLKPEDTAVYYCAAPRVGVGWVRPCDYEYNYWGQGTQVTVSS
notes: as for B1
B14: Nb-11 (VHH)
VHH: B13 VHH with A14T, V29F, D31A, S32A, G33D, T50I
notes: as for B1
B15: Nb-01 (VHH)
VHH: QVQLQESGGGLVQPGGSLRLSCTASGLTFDDYAMGWFRQAPGKGREGVSLITWSGSSTYYADSVKGRFTVSRDTATNTLVLQMNSLKPEDTAMYYCAADPRSGGYYSSPPPPAVYRYLRFWGQGTQVTVSS
notes: as for B1
B16: Nb-22 (VHH)
VHH: QVQLQESGGGSVQAGGSLRLSCAASGYTFTTAYMGWFRQAPGKEREGVAAIDSDGRTEYADAVKGRFTISKDNAKNTLYLQMNSLKPEDTAMYYCAADKDDWLLLHGRSLFPSAFAYWGQGTQVTVSS
notes: as for B1
B17: Nb-03 (VHH)
VHH: QVQLQESGGGSVQAGGSLRLSCAASGYTYSGYCMGWFRQAPGKEHEGVASIVSGLGRPYYADSVKGRFTISQDNAKNTVYLQMNSLKPEDTAMYYCAAEWATKLCSEIPATEWDYWGQGTQVTVSS
notes: as for B1
B18: Nb-08 (VHH)
VHH: QVQLQESGGGSVQAGGSLRLSCAASGYTSSRKYIGWFRQAPGKQREWVAGIDTGAGGTCTIASVQGRFTISQDVAKNTLYLQIDSLKPEDTAVYYCAADWVRGGFCSGDADFRYWGQGTQVTVSS
notes: as for B1
B19: Nb-02 (VHH)
VHH: QVQLQESGGGSVQAGGSLRLSCAASRDTYTRYFMGWFRQTPGKEGEGVAVLLPGGDYTFYADSVKGRFTITQDSAKNTVYLQMNSLKPEDTAMYYCAADVTVGSRWSQASNYNYWGQGTQVTVSS
notes: as for B1
B20: Nb-12 (VHH)
VHH: B19 VHH with G45P, D56A
notes: as for B1
B21: Nb-19 (VHH)
VHH: QVQLQESGGGSVQAGGSLRLSCAASGFTYSNYCMAWFRQAPGKEREGVAAIDSDGSTSYADSVKGRFTISQDNAKNTLYLQMNSLKPEDTAMYYCAAGNKKPYQLCNTDSRRYYHWGQGTQVTVSS
notes: as for B1
B22: Nb-13 (VHH)
VHH: QVQLQESGGGSVQAGGSLRLSCTASSNTGRMGWFRQAPGKEREGVTAVDNFGRTNYAKYVKGRFTISKDNAKNTLYLQMNSLKPEDTAMYYCAADPWGRGAALTPNEYIYWGQGTQVTVSS
notes: as for B1
B23: hcIgG-04 (antibody, V domains shown)
VH: B13 VHH
notes: also called heavy-chain antibody of Nb-04

For one assay, the target named is T1, human GITR-His. Briefly: PE-ELISA, sample OD against reference OD. As for the experimental part:
(§1) (2) crude antibodies were obtained by a conventional osmotic shock method, and the crude antibodies were transferred to an enzyme-labeled plate (Nunc) coated with the antigen GITR-His overnight, and incubated at room temperature for 1 h;
Turning to B1, the “Ratio (+/-)” value worked out at 5.04.

Consider B2, for which the “Ratio (+/-)” value came to 15.1.

As for B3, the “Ratio (+/-)” value was 9.8.

With B4, the “Ratio (+/-)” value is 7.55.

On to B5, for which the “Ratio (+/-)” value amounted to 32.6.

Regarding B6, the “Ratio (+/-)” value was 29.9.

In the case of B7, the “Ratio (+/-)” value turned out to be 21.5.

Take B8: the “Ratio (+/-)” value stood at 12.2.

In the case of B9, the “Ratio (+/-)” value is 23.1.

For the molecule B10, the “Ratio (+/-)” value was 20.7.

As to B11, the “Ratio (+/-)” value stood at 4.

Turning to B12, the “Ratio (+/-)” value was found to be 3.31.

Consider B13, for which the “Ratio (+/-)” value was 22.

Regarding B14, the “Ratio (+/-)” value is 7.78.

As to B15, the “Ratio (+/-)” value worked out at 6.23.

Regarding B16, the “Ratio (+/-)” value came out at 10.

On to B17, for which the “Ratio (+/-)” value came out at 11.7.

Take B18: the “Ratio (+/-)” value worked out at 23.

For the molecule B19, the “Ratio (+/-)” value came out at 20.7.

On to B20, for which the “Ratio (+/-)” value came out at 4.53.

Regarding B21, the “Ratio (+/-)” value stood at 18.5.

Consider B22, for which the “Ratio (+/-)” value was 3.29.

The next assay concerns the target T1, human GITR-His. Nature of the assay: PE-ELISA, crude nanobody on coated GITR-His, anti-HA detection. As for the experimental part: as §1
(3) unbound antibodies were washed off with PBST, then mouse anti-HA tag antibody (SinoBiological) was added, and placed at room temperature for 1 h;
Consider B1, for which the “Sample OD (+)” value is 1.25 OD (405 nm).

For the molecule B2, the “Sample OD (+)” value was 1.04 OD (405 nm).

On to B3, for which the “Sample OD (+)” value is 1.01 OD (405 nm).

On to B4, for which the “Sample OD (+)” value was 0.522 OD (405 nm).

As for B5, the “Sample OD (+)” value is 2.35 OD (405 nm).

On to B6, for which the “Sample OD (+)” value is 2.27 OD (405 nm).

B7: the “Sample OD (+)” value is 1.41 OD (405 nm).

For the molecule B8, the “Sample OD (+)” value was 1.41 OD (405 nm).

With B9, the “Sample OD (+)” value is 1.45 OD (405 nm).

Consider B10, for which the “Sample OD (+)” value was 1.67 OD (405 nm).

For B11, the “Sample OD (+)” value is 0.46 OD (405 nm).

Consider B12, for which the “Sample OD (+)” value is 0.314 OD (405 nm).

Consider B13, for which the “Sample OD (+)” value was 1.63 OD (405 nm).

For B14, the “Sample OD (+)” value was 0.552 OD (405 nm).

On to B15, for which the “Sample OD (+)” value is 0.467 OD (405 nm).

As to B16, the “Sample OD (+)” value was 0.606 OD (405 nm).

As to B17, the “Sample OD (+)” value was 0.786 OD (405 nm).

As to B18, the “Sample OD (+)” value was 1.71 OD (405 nm).

In the case of B19, the “Sample OD (+)” value is 1.43 OD (405 nm).

Regarding B20, the “Sample OD (+)” value is 0.444 OD (405 nm).

On to B21, for which the “Sample OD (+)” value is 1.32 OD (405 nm).

On to B22, for which the “Sample OD (+)” value was 0.263 OD (405 nm).

The target of the next assay is T1, human GITR-His. Nature of the assay: ForteBio BLI, antibody on AHQ tip, human GITR-His 100 nM in solution, 1:1 model. As for the experimental part: (2) Experimental procedure: 100 μl of SD buffer and antibodies (hcIgG-02, hcIgG-03, hcIgG-04, hcIgG-07, hcIgG-09, hcIgG-10, hcIgG-16 and hcIgG-20, control antibody), GITR-His (Acro biosystems) were added to a 96-well half-volume black polystyrene microplate. The plate was arranged according to the positions of the samples, the position of the sensor was selected, and the operation procedures were set as: Baseline, Loading ˜1 nm, Baseline, Association and Dissociation, each running for a time depending on the binding and dissociation rates of the sample, at a rotation speed of 400 rpm and a temperature of 30° C.
(3) A 1:1 binding model was adopted for kinetic analysis.
The molecule B23 showed a Kd of 7.92 nM, a koff of 0.00202 s⁻¹ and a kon of 256000 M⁻¹ s⁻¹.
